Test [1] concerns the target T1, endogenous human PDGF-CC in A549 cells and placental tissue (Homo sapiens (endogenous, A549 and …, UniProt Q9NRA1)).
T1 construct: platelet-derived growth factor C, endogenous; source: endogenous, paraffin-embedded sections of the A549 cell line and human placental tissue
Put plainly: immunostaining of cells or tissue; paraffin-embedded sections of A549 cells and human placenta, citric acid antigen retrieval, 6B3 at 1.5 μg/ml, anti-mouse-HRP and DAB; with or without 1 h pre-incubation of 6B3 with 6.7 X excess PDGF-CC His6 (10 μg/ml). Conditions: one partner purified.

For test [2], the target named is T2, PDGF-AA (UniProt P04085).
T2 construct: platelet-derived growth factor A chain homodimer
Put plainly: ELISA; 96-well plate coated with PDGF-AA, PDGF-BB, PDGF-CC or PDGF-DD; 6B3 applied (methods: hybridoma supernatant in dilution series), anti-mouse IgG-AP, absorbance at 405 nm. The following applies: one partner purified.

Test [3] concerns the target T3, PDGF-BB (UniProt P01127).
T3 construct: platelet-derived growth factor B chain homodimer
The test is described as above. The following applies: one partner purified.

In test [4] the target is T4, recombinant human PDGF-CC core domain protein (activated PDGF-CC, growth factor domain) (human, UniProt Q9NRA1).
T4 construct: platelet-derived growth factor C, human, core domain (growth factor domain, GFD) released from the N-terminal CUB domain; also called hPCc; active PDGF-CC
The test is described as follows: immunoblot; recombinant PDGF proteins run reduced and non-reduced, blotted and probed with murine mAb IgG. Conditions: both partners purified. (In general: Immunoblotting shows a protein as a band on a membrane.)

Test [5] has as its target T5, human latent full-length PDGF-CC (Homo sapiens, UniProt Q9NRA1).
T5 construct: platelet-derived growth factor C, human, latent full-length form with the CUB domain; also called hPCf; latent PDGF-CC
The description is as above. Conditions: both partners purified.

Test [6] has as its target T6, human PDGF-DD (Homo sapiens, UniProt Q9GZP0). Described as above. Conditions: both partners purified.
In test [7] the target is T2, PDGF-AA. The test is described as follows: ELISA; data not shown; as the 6B3 ELISA on coated PDGF-AA, PDGF-BB, PDGF-CC and PDGF-DD, with other clones. The following applies: one partner purified. Background: ELISA stands for enzyme-linked immunosorbent assay.
The target in test [8] is T3, PDGF-BB. The test is described as above. Conditions: one partner purified.
Test [9] concerns the target T6, human PDGF-DD. Described as above. Conditions: one partner purified.

Numbering of substitutions follows the chain as printed.

T3 sequence (P01127 82-190): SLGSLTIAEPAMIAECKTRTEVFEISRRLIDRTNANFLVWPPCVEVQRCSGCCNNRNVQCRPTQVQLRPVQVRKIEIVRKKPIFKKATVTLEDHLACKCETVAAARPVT
T4 sequence (Q9NRA1 230-345): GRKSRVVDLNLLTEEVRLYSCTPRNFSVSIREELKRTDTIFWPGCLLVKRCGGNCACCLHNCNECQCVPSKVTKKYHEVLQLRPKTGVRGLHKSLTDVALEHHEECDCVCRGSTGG
T1 sequence (Q9NRA1 23-345): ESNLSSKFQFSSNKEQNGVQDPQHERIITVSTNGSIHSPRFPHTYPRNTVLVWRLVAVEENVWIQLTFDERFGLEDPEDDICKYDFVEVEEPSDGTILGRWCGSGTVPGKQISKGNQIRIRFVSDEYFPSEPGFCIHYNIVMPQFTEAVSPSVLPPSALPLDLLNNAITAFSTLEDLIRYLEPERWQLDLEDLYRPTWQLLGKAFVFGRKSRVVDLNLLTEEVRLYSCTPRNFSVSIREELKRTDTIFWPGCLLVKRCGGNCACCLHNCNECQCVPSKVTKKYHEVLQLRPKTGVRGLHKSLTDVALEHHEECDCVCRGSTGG
T5 sequence (Q9NRA1 23-345): as above

B1: monoclonal anti-PDGF-CC antibody 6B3 (antibody, V domains shown)
VH: QVQLQQSGVEVARPGASVKLSCKASGYTFRSYGITWVRQRTGQGLEWIGEIYPRSGKTYYNEKFKGKATLTADTSSSTVYMELRSLTSEDSAVYFCAREGYGYDGGYFDYWGQGTTLTVSS
VL: DIVMTQSPSSLAMSVGQKVTMSCKSSQSLLNSRNQKNYLAWYQQKPGQSPKLLVYFASTRESGVPDRFTGSGSGTDFTLTISSVQAEDLAVYYCQQHYSTPLTFGAGTKLELK
notes: VH CDR1 (Kabat combined with Chothia); VH CDR2; VH CDR3; VL CDR1 (Kabat combined with Chothia); VL CDR2; VL CDR3; Mouse IgG2a, kappa; Only the CDRs are printed; frameworks are not; also called mAb 6B3; clone 6B3; source: mouse hybridoma; culture supernatant, or IgG purified (HiTrap-Protein G)
Consider B1, for which the binding result in test [1] is given as “binds”; with PDGF-AA [2] it was “no binding”; with PDGF-BB [3], “no binding”; in test [4], “binds”; in test [5], “binds”; with human PDGF-DD [6] it was “no binding”.

B2: monoclonal anti-PDGF-CC antibody 11F5 (antibody, V domains shown)
VH: QVQLQQSGAELARPGASVKLSCKASGYIFISYGISWVKQRTGQGLEWIGEIYPRSGKTYYNEKFKDKAALTADKSSSIAYMELRSLTSEDSAVYFCAREGYGYDGGYFDYWGQGTILTVSS
VL: B1 VL with T20A, M21V, R33S, E61D
notes: VH CDR1 (Kabat combined with Chothia); VH CDR2; VH CDR3; VL CDR1 (Kabat combined with Chothia); VL CDR2; VL CDR3; Mouse IgG2a, kappa; Only the CDRs are printed; frameworks are not; also called clone 11F5; source: mouse hybridoma; culture supernatant, or IgG purified (HiTrap-Protein G)
As to B2, the binding result in the test with PDGF-AA [7], with PDGF-BB [8] and with human PDGF-DD [9] was “no binding” throughout.

B3: monoclonal anti-PDGF-CC antibody 19C7 (antibody, V domains shown)
VH: B1 VH
VL: B1 VL
notes: VH CDR1 (Kabat combined with Chothia); VH CDR2; VH CDR3; VL CDR1 (Kabat combined with Chothia); VL CDR2; VL CDR3; Mouse IgG2a, kappa; CDRs identical to those of 6B3; also called clone 19C7; source: mouse hybridoma; culture supernatant, or IgG purified (HiTrap-Protein G)
For B3, the binding result in the test with PDGF-AA [7], with PDGF-BB [8] and with human PDGF-DD [9] was “no binding” in each case.
